Source: PMC8528726, “Kinetics of H2O2-driven catalysis by a lytic polysaccharide monooxygenase from the fungus Trichoderma reesei” (The Journal of Biological Chemistry, 2021)

Substrate: O=C1O[C@H]([C@@H](O)CO)C(O)=C1O
Test: purified protein
Assay type: biochemical, Trichoderma reesei
Conditions: 50 mM sodium acetate pH 5.0, 25 °C
[1] = ascorbate peroxidase reaction, co-substrate H2O2, true value extrapolated over [H2O2], ping-pong, insufficient AscA saturation, treat with caution

B1: TrAA9A (Trichoderma reesei QM6a) (protein)
chain: HGHINDIVINGVWYQAYDPTTFPYESNPPIVVGWTAADLDNGFVSPDAYQNPDIICHKNATNAKGHASVKAGDTILFQWVPVPWPHPGPIVDYLANCNGDCETVDKTTLEFFKIDGVGLLSGGDPGTWASDVLISNNNTWVVKIPDNLAPGNYVLRHEIIALHSAGQANGAQNYPQCFNIAVSGSGSLQPSGVLGTDLYHATDPGVLINIYTSPLNYIIPGPTVVSGLPTSVAQGSSAATATASATVPGGGSGPTSRTTTTARTTQASSRPSSTPPATTSAPAGGPTQTLYGQCGGSGYSGPTRCAPPATCSTLNPYYAQCLN
notes: saturated with copper
- Km [1]: 140 µM
- kcat [1]: 2.1 s⁻¹
- K0.5 (cellulose peroxygenase reaction, priming reductant, H2O2 and BMCC present, varied: cofactor): 0.1 mM
